± gives the uncertainty stated by the source.

A short description of the data set: amyloid nucleation score (Sup35N fusion, yeast selection) (log enrichment); library NNK3; higher = more nucleation; inactive = no reads after selection. In a few lines:
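In psi-negative yeast, Sup35N fusions carrying peptides of 20 random codons were induced with 100 μM copper sulfate for 24 hours. The cells then grew 7 days at 30°C on medium lacking adenine and uracil, and plasmid inserts from input and output were Illumina-sequenced, excluding sequences with under 100 input reads. Nucleation score is the DiMSum log enrichment of output over input reads, centred on the mode score of non-aggregating sequences.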
On to VYDMCGNLQWAL, for which the amyloid nucleation score result is “inactive”.

On to VYEGFQVWNDGLPDLVRFGV, for which the amyloid nucleation score entry was “inactive”.

Regarding VYIRSFRSCTWRSLPMRIRY, the amyloid nucleation score entry was “inactive”.

Consider VYKIMVTFPSISMPSRSSGL, for which the amyloid nucleation score entry was “inactive”.

For the substance VYLHYLTREVSDYLMWWFRV, the amyloid nucleation score entry was “inactive”.

As for VYLKLSILFSCAFSN, the amyloid nucleation score entry is “inactive”.

As to VYLRHWAIYVIESVLQGSCR, the amyloid nucleation score entry is “inactive”.

On to VYLRSISFVRTRQMVWCLLP, for which the amyloid nucleation score result was “inactive”.

Regarding VYRDFSGYFRLGWFDMSSVR, the amyloid nucleation score entry is “inactive”.

As to VYRNVHMFSRWQDFNPLGAR, the amyloid nucleation score result was “inactive”.

With VYTMVTMIDGIELFRWNLWS, the amyloid nucleation score entry is “inactive”.

For VYVCYIL, the amyloid nucleation score was 1.73 ± 0.077.

With VYVLFRLCNNRFRKELIATL, the amyloid nucleation score entry is “inactive”.

Regarding VYVRG, the amyloid nucleation score entry was “inactive”.

As to VYYKVKEHVGWVFVSVVCIV, the amyloid nucleation score entry is “inactive”.

In turn, WAKNHPDLIMLIFADTISYN returned an amyloid nucleation score of 2.31 ± 0.058.

With WALTRLRAPPF, the amyloid nucleation score entry was “inactive”.

As for WCAISICQLLKRQWYLGSYV, the amyloid nucleation score result was “inactive”.

Regarding WCARSTWKISIEY, the amyloid nucleation score entry was “inactive”.

For WCDYMKNPCSFEGKFLWRWP, the amyloid nucleation score result is “inactive”.

In the case of WCFGYLHMNIV, the amyloid nucleation score entry was “inactive”.

With WCFMQQFVFTLGRKFRIWRI, the amyloid nucleation score result is “inactive”.

Turning to WCGEKVCCRAQMSLTIKSLL, the amyloid nucleation score result is “inactive”.

Consider WCHLFLFMCTSSLFSGWDDG, for which the amyloid nucleation score entry was “inactive”.

On to WCLHNLVSMLRDQTSRVSFP, for which the amyloid nucleation score result is “inactive”.

On to WCQDATMYNPSYY, for which the amyloid nucleation score entry is “inactive”.

Turning to WDLLTKLHVKIKFLDRGMMS, the amyloid nucleation score entry was “inactive”.

With WDSMMYNMVKDDSGLWNHVE, the amyloid nucleation score result is “inactive”.

As to WDWWN, the amyloid nucleation score entry is “inactive”.

As for WFFMNVLASENKYFVLCCKA, the amyloid nucleation score entry is “inactive”.

On to WFLVNRDWFLGCQVTGEVLI, for which the amyloid nucleation score result was “inactive”.

As for WFNLCYFG, the amyloid nucleation score worked out at 2.5 ± 0.069.

As to WFPSKYIATMFCLQVFLVKP, the amyloid nucleation score entry is “inactive”.

Take WFVNL: the amyloid nucleation score is 1.38 ± 0.15.

In the case of WGCEIRANLLITSWVSVTVG, the amyloid nucleation score result was “inactive”.

Consider WGLGFFAI, for which the amyloid nucleation score entry is “inactive”.

Take WGLTMLRESRVCCKSYNKQG: the amyloid nucleation score entry was “inactive”.

On to WGNLCQSGALCCQEGC, for which the amyloid nucleation score entry is “inactive”.

Turning to WGRISNAHG, the amyloid nucleation score result was “inactive”.

As for WGSEFIDTKFA, the amyloid nucleation score result is “inactive”.

For WGWMSTIKIVG, the amyloid nucleation score result was “inactive”.

Turning to WHCLTVFILKYEVGFCSSLR, the amyloid nucleation score result is “inactive”.

For the substance WHSKKLRICHLGCFVQTDWV, the amyloid nucleation score result is “inactive”.

In the case of WHWCCDSNMMRVIFTWFFSL, the amyloid nucleation score result was “inactive”.

WIAVPRVGTWVGEKMS: the amyloid nucleation score entry was “inactive”.

Regarding WIPAMVYFEHNTS, the amyloid nucleation score result is “inactive”.

For the substance WIRIVRELGRSVR, the amyloid nucleation score result is “inactive”.

Regarding WISFFT, the amyloid nucleation score entry was “inactive”.

In the case of WKLGLK, the amyloid nucleation score result was “inactive”.

In the case of WKSPVYAYVWNSGPFRRQGK, the amyloid nucleation score result is “inactive”.

Consider WKWVRRYVRATIRSYSKDLD, for which the amyloid nucleation score entry is “inactive”.

Turning to WKYWIWVFMNATYMDCVGML, the amyloid nucleation score entry is “inactive”.

Consider WLFSTSI, for which the amyloid nucleation score result is “inactive”.

As for WLHINGVLYIFSMAGSALSV, the amyloid nucleation score result is “inactive”.

With WLIFELIVSELSTRHHKALD, the amyloid nucleation score result is “inactive”.

As for WLLTM, the amyloid nucleation score result was “inactive”.

Turning to WLMIMDFKCLSPRTRSWRRM, the amyloid nucleation score entry was “inactive”.

As for WLNVLNSYSDRSYLKETRLR, the amyloid nucleation score result was “inactive”.

Consider WLRLIA, for which the amyloid nucleation score entry was “inactive”.

Regarding WLVPR, the amyloid nucleation score result was “inactive”.

For the substance WLWTLALNFTYKYFMCGKYK, the amyloid nucleation score entry is “inactive”.

Turning to WMFVRGDAGLRFVGG, the amyloid nucleation score was 1.05 ± 0.21.

Take WMMRD: the amyloid nucleation score entry was “inactive”.

With WMNGISKL, the amyloid nucleation score entry was “inactive”.

Regarding WMYKTWHRI, the amyloid nucleation score result was “inactive”.

As to WNMSVRRISYEDL, the amyloid nucleation score result is “inactive”.

On to WPSGFCYR, for which the amyloid nucleation score result was “inactive”.

With WQHSRSLDTSACCPT, the amyloid nucleation score result was “inactive”.

For WQQAYRDRTSRSYWQPICAT, the amyloid nucleation score entry is “inactive”.

On to WQTKIGYSGRLFDRTLGDAK, for which the amyloid nucleation score result is “inactive”.

Consider WQWVM, for which the amyloid nucleation score entry was “inactive”.

Take WRVFVIRYKKSMYAETGKVK: the amyloid nucleation score result is “inactive”.

As for WRVLFSILSVTAVWATYAGL, the amyloid nucleation score entry is “inactive”.

Turning to WRVYVFNVLETYMLRVKWVG, the amyloid nucleation score entry is “inactive”.

As to WSFCGLYLNI, the amyloid nucleation score was found to be 1.62 ± 0.095.

Regarding WSILL, the amyloid nucleation score result is “inactive”.

As to WSINAIGQTHINSEVLGVLF, the amyloid nucleation score entry was “inactive”.

For the substance WSISIGYFP, the amyloid nucleation score result was “inactive”.

In the case of WSKVSHPYSALYSIMDRYT, the amyloid nucleation score entry was “inactive”.

On to WSSVFESLQSLMIIFRRLAD, for which the amyloid nucleation score result is “inactive”.

In the case of WSTLKMVRVCYGASFSNVYM, the amyloid nucleation score result was “inactive”.

WSWGTG: the amyloid nucleation score entry is “inactive”.

With WSYREVHRRDLGLLSNGTCW, the amyloid nucleation score result was “inactive”.

WSYTAKGVW: the amyloid nucleation score entry was “inactive”.

With WTEGST, the amyloid nucleation score entry was “inactive”.

Regarding WTFNLFFNFRTFRLCCRKLV, the amyloid nucleation score turned out to be 0.938 ± 0.096.

Take WTQAGQIRMRKRSR: the amyloid nucleation score result was “inactive”.

In the case of WVCIW, the amyloid nucleation score came out at 0.178 ± 0.72.

For WVCLWVIVLYHIPVLNKLLS, the amyloid nucleation score result is “inactive”.

As to WVCTYLTRFGRITGALRMDV, the amyloid nucleation score entry was “inactive”.

For WVGGPQNQRPANWTFGMWFH, the amyloid nucleation score result was “inactive”.

For WVHVRPKHCTSGLVTKFANM, the amyloid nucleation score entry was “inactive”.

Take WVLDQRNSLSKCKLG: the amyloid nucleation score entry was “inactive”.

For the substance WVLEE, the amyloid nucleation score result was “inactive”.

WVLLRWAGY had an amyloid nucleation score of -0.611 ± 2.4.

WVYWRKSSILSTHRNIVKHW: the amyloid nucleation score result is “inactive”.

As for WWMYSALGMYTDHEFACDVA, the amyloid nucleation score entry is “inactive”.

With WWVIVGSAYVFDISIHFSSP, the amyloid nucleation score was 1.24 ± 0.096.

Turning to WWVRQNVRWVLACVDFSTFS, the amyloid nucleation score result is “inactive”.

WYACRIQ registered an amyloid nucleation score of 0.517 ± 0.23.

With WYAKWKVN, the amyloid nucleation score result was “inactive”.

Regarding WYGITEIP, the amyloid nucleation score entry is “inactive”.

Substance WYGVSACYGWHNVAHSSRSL yielded an amyloid nucleation score of 1.22 ± 0.18.

Substance WYLIFGCRASWGSWR displayed an amyloid nucleation score of -0.039 ± 0.61.

With WYRHGIVEYDAIIWDESARR, the amyloid nucleation score entry was “inactive”.

With WYRLLYKVEYNFKGWSVFVR, the amyloid nucleation score entry was “inactive”.

With WYTIRDYRAFLSVM, the amyloid nucleation score entry was “inactive”.

For YAFHKTDSCCVMCVRGPAPT, the amyloid nucleation score entry was “inactive”.

In the case of YAFLELFNFVLNLDLGVGYL, the amyloid nucleation score entry was “inactive”.

In the case of YAGFCPRGRSPKRG, the amyloid nucleation score entry is “inactive”.

Regarding YAIVGSRVVRLRSKNRRNLS, the amyloid nucleation score result is “inactive”.

Consider YALCPVRPGSQQGKLGVTFL, for which the amyloid nucleation score came to 0.503 ± 0.45.

With YALMLVFERHSRAARSVGMG, the amyloid nucleation score entry was “inactive”.

As to YAMCIISIAFPLTL, the amyloid nucleation score result was “inactive”.

In the case of YANCLDNIPDRVQDMYSCFS, the amyloid nucleation score result was “inactive”.

As for YANQHSPEHQRLSSRLVGTN, the amyloid nucleation score entry is “inactive”.

Take YASYFSWEDCHG: the amyloid nucleation score result is “inactive”.

Regarding YAVYRTPFVSKLAMFQLVQ, the amyloid nucleation score is -1.04 ± 1.9.

For YCAALGSSY, the amyloid nucleation score result was “inactive”.

With YCAGWFFMFSV, the amyloid nucleation score stood at 0.586 ± 0.2.

For the substance YCFSWNHR, the amyloid nucleation score was determined as 0.116 ± 0.66.

For the substance YCKEGLQQDPIFSKFYEHLG, the amyloid nucleation score entry is “inactive”.

Take YCNMVWT: the amyloid nucleation score entry is “inactive”.

Consider YCQVGINWFYGAGMKGYILS, for which the amyloid nucleation score entry is “inactive”.

For the substance YCSCNEGGLDPSLTMTL, the amyloid nucleation score entry was “inactive”.

As for YCSLMMMVYRDFFTLVNASV, the amyloid nucleation score entry was “inactive”.

As to YCWYRQMDNSRGGYYMWVS, the amyloid nucleation score entry is “inactive”.

Consider YDAIVAPFSFSTLAVVITYG, for which the amyloid nucleation score result is “inactive”.

For YDCKLSRAVLRGV, the amyloid nucleation score result is “inactive”.

In the case of YDCWFPHLSECLQLDTIFKA, the amyloid nucleation score result is “inactive”.

YDKLSYKLPLF: the amyloid nucleation score entry was “inactive”.

As to YDLRCCTAVLFDLVESRATL, the amyloid nucleation score entry was “inactive”.

Take YDSKDF: the amyloid nucleation score result was “inactive”.

The values above are taken from the supplement of paper PMC12042874.
